# Test results taken from US20200055937A1 (REMD BIOTHERAPEUTICS, published 2020).
# Numbering of substitutions follows the chain as printed.
# B1: Humanized Ab 8 (VH3 + VL2) (antibody, human IgG1, kappa, V domains shown)
# VH: QVQLVQSGAEVKKPGASVKVSCKASGYKFTDHFINWVKQAPGQGLEWIGDINPNNGGTNSNQKFEGRVTLTVDTSISTAYMELSRLRSDDTAVYYCARLRREYFYAMDYWGQGTLVTVSS
# VL: DIVMTQSPLSLPVTPGEPASISCRSSKSLLHSNGITYLYWYLQKPGQSPQLLIYQMSNLASGVPDRFSSSGSGTDFTLKISRVEAEDVGVYYCAQNLELPLTFGGGTKVEIKR
# notes: Humanized IgG1 derived from MAb A4, full length, HEK293
# B2: Humanized Ab 1 (VH1 + VL1) (antibody, human IgG1, kappa, V domains shown)
# VH: B1 VH with K38R, I48M, L70M, V72R
# VL: B1 VL with S69G
# notes: as for B1
# B3: Humanized Ab 14 (VH6 + VL3) (antibody, human IgG1, kappa, V domains shown)
# VH: B1 VH with R67K, V68A, T74K, S84R
# VL: B1 VL with V109L
# notes: Humanized IgG1 derived from MAb A4
# B4: Humanized Ab 6 (VH2 + VL3) (antibody, human IgG1, kappa)
# heavy: not shown
# light: DIVMTQSPLSLPVTPGEPASISCRSSKSLLHSNGITYLYWYLQKPGQSPQLLIYQMSNLASGVPDRFSSSGSGTDFTLKISRVEAEDVGVYYCAQNLELPLTFGGGTKLEIKRTVAAPSVFIFPPSDEQLKSGTASVVCLLNNFYPREAKVQWKVDNALQSGNSQESVTEQDSKDSTYSLSSTLTLSKADYEKHKVYACEVTHQGLSSPVTKSFNRGEC
# notes: as for B1
# B5: Humanized Ab 5 (VH2 + VL2) (antibody, human IgG1, kappa)
# heavy: not shown
# light: B4 light with L109V
# notes: as for B1
# B6: Humanized Ab 11 (VH4 + VL2) (antibody, human IgG1, kappa)
# heavy: not shown
# light: B4 light with L109V
# notes: as for B3
# B7: Humanized Ab 7 (VH3 + VL1) (antibody, human IgG1, kappa, V domains shown)
# VH: B1 VH
# VL: B1 VL with S69G
# notes: as for B1
# B8: Humanized Ab 13 (VH5 + VL3) (antibody, human IgG1, kappa, V domains shown)
# VH: B1 VH with K12V, V20I, A40N, V68A
# VL: B1 VL with V109L
# notes: as for B1
# B9: Humanized Ab 12 (VH4 + VL3) (antibody, human IgG1, kappa)
# heavy: not shown
# light: B4 light
# notes: as for B1
# B10: Humanized Ab 2 (VH1 + VL2) (antibody, human IgG1, kappa)
# heavy: not shown
# light: B4 light with L109V
# notes: as for B1
# B11: Humanized Ab 10 (VH4 + VL1) (antibody, human IgG1, kappa, V domains shown)
# VH: B1 VH with V20I, V68A
# VL: B1 VL with S69G
# notes: as for B1
# B12: Humanized Ab 4 (VH2 + VL1) (antibody, human IgG1, kappa, V domains shown)
# VH: B1 VH with K38R, L70M
# VL: B1 VL with S69G
# notes: as for B1
# B13: Humanized Ab 3 (VH1 + VL3) (antibody, human IgG1, kappa)
# heavy: not shown
# light: B4 light
# notes: as for B1
# B14: MAb A5 (32G4C12) (antibody, V domains shown)
# VH: QVQLQQSGPELVRPGASVKLSCKASGYTFTTYDINWVKQRPGQGLEWIGWIYPRDGSIIFNEKFKGKATLTVDTTSSTAYMELHSLTSEDSAVYFCARRGLLGPLDYWGQGTPLTVSS
# VL: DIVMTQSHKFMSTSVGDRVSITCKASQDVATTVAWYQQKPGQSPKLVIYWASTRHTGVPDRFTGSGSGTDFTLTISNVQSEDLADYFCQQYSSYPTFGVGTKLELK
# notes: also called murine antibody A5
# B15: MAb A2 (7G10D3) (antibody, V domains shown)
# VH: QIQLVQSGPELKKPGETVKISCKASGYTFTTYGMSWVKQTPGKGLKWMGWINTYSGVPTYADDFKGRFAFSLETSASTAYLQINNLKNEDTATYFCARGRDYYGSSYRLFGVWGTGTTVTVSS
# VL: DIQMTQTTSSLSASLGDRVTISCRASQDISNYLNWYQQKPDGTVKLLIYYTSILNSGVPSKFSGSGSGTDYSLTISNLEQEDIATYFCQQGNTLPWTFGGGTKLEIK
# notes: also called murine antibody A2
# B16: MAb A3 (32G12D2) (antibody, V domains shown)
# VH: QVQLQQPGAELVRPGSSVKLSCKASGYTFTSYWMHWVKQRPIQGLEWIGNIDPSDSETHYNQNFKDKATLTVDKSSSTAYLQLSSLTSEDSAVYYCARRYTSSSFDYWGQGTTLTVSS
# VL: B15 VL with I21V, S30R, Y50F, I53K, N55H, K61R, S72F, T74A, W96Y
# notes: also called murine antibody A3
# Legend:
# [1] = molecular target: T1, CTLA4-his (UniProt P16410 36-161, limits assumed); test: SPR Biacore T200, antibody from supernatant captured by anti-human Fc, CTLA4-his injected
# T1 construct: construct not described; also called Ag CTLA4-his; Antigen CTLA4-his; not shown: his tag
# T1 sequence (looked up): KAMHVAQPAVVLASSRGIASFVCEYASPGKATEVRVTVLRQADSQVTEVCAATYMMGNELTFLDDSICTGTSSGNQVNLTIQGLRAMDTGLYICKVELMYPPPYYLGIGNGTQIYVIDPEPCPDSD
# Experimental: Affinity ranking of the fifteen humanized antibodies was determined using a Surface Plasmon Resonance (SPR) biosensor, Biacore T200 (GE Healthcare). Anti-human Fc gamma specific antibody was immobilized onto the sensor chip using amine coupling method. […] After equilibration, Ag CTLA4-his was injected for 300 seconds (association phase) followed by the injection of running buffer for 600s (dissociation phase). Responses of reference flow cell (flow cell 1) were subtracted from those of humanized antibodies flow cells during each cycle. The surface was regenerated before the injection of other humanized antibodies. The process was repeated until all antibodies are analyzed. The off-rates of humanized antibodies were obtained from fitting the experimental data locally to 1:1 interaction model using the Biacore 8K evaluation software. The antibodies were ranked by their dissociation rate constants (off-rates, kd).
# [2] = molecular target: T1, CTLA4-his; test: SPR Biacore 8k, purified antibody captured on chip, CTLA4-his as analyte
# Experimental: The affinities of purified antibody binding to CTLA4-his was determined using a Surface Plasmon Resonance (SPR) biosensor, Biacore 8k. Antibodies were immobilized on the sensor chip through capture method. Antigen CTLA4-his was used as the analyte. The data of dissociation (kd) and association (ka) rate constants were obtained using Biacore 8k evaluation software. The equilibrium dissociation constants (KD) were calculated from the ratio of kd over ka.
# [3] = molecular target: T2, CTLA4-Fc (UniProt P16410 36-161, limits assumed); test: cell-based or functional assay
# T2 sequence (looked up): T1 sequence (looked up)
# [4] = molecular target: T3, murine CTLA-4 (murine, UniProt P09793 36-161, limits assumed); test: ELISA, murine CTLA-4 binding assay
# T3 construct: ELISA antigen; construct not described; also called mouse CTLA-4
# [5] = molecular target: T2, CTLA4-Fc; test: cell-based or functional assay; remark: listed apart in the source
# [6] = molecular target: T4, human CTLA-4 (human, UniProt P16410 36-161, limits assumed); test: ELISA, human CTLA-4 binding
# T4 construct: also called HuCTLA-4; human cytotoxic T lymphocyte antigen-4
# T4 sequence: T1 sequence (looked up)
# [7] = molecular target: T4, human CTLA-4; test: ligand blocking assay with purified proteins; competitor CD80
# [8] = molecular target: T5, cyno Macaque CTLA-4 (cyno Macaque, UniProt G7PL88 36-161); test: ELISA, cyno CTLA-4 binding
# T5 construct: ELISA antigen; construct not described; also called CynoCTLA-4; cyno CTLA-4
# T5 sequence: T1 sequence (looked up) with S14N, I18T, L106M
# [9] = molecular target: T4, human CTLA-4; test: ligand blocking assay with purified proteins; competitor CD86
# [10] = molecular target: T4, human CTLA-4; test: ratio of the IC50 for blocking CD80 to the IC50 for blocking CD86 on CTLA-4
binder,measurement,setting,value
B1,Kd,[1],0.791 nM
same,koff,[1],0.000523 s⁻¹
same,kon,[1],661000 M⁻¹ s⁻¹
B2,Kd,[1],1.2 nM
same,koff,[1],0.000338 s⁻¹
same,kon,[1],281000 M⁻¹ s⁻¹
B3,Kd,[2],0.0248 nM
same,koff,[2],1.99e-05 s⁻¹
same,kon,[2],802000 M⁻¹ s⁻¹
same,Kd,[1],≤ 0.0452 nM
same,koff,[1],≤ 1e-05 s⁻¹
same,kon,[1],221000 M⁻¹ s⁻¹
same,"IC50 (nM), Jurkat cell activation assay of Example 2 (IL-2)",[3],3.1 nM
B4,Kd,[1],1.16 nM
same,koff,[1],0.000347 s⁻¹
same,kon,[1],300000 M⁻¹ s⁻¹
B5,Kd,[1],1.12 nM
same,koff,[1],0.000345 s⁻¹
same,kon,[1],309000 M⁻¹ s⁻¹
B6,Kd,[2],0.339 nM
same,koff,[2],0.000307 s⁻¹
same,kon,[2],904000 M⁻¹ s⁻¹
same,Kd,[1],0.684 nM
same,koff,[1],0.000305 s⁻¹
same,kon,[1],446000 M⁻¹ s⁻¹
same,"IC50 (nM), Jurkat cell activation assay of Example 2 (IL-2)",[3],8.7 nM
B7,Kd,[1],0.956 nM
same,koff,[1],0.000434 s⁻¹
same,kon,[1],454000 M⁻¹ s⁻¹
B8,Kd,[1],0.542 nM
same,koff,[1],0.00016 s⁻¹
same,kon,[1],295000 M⁻¹ s⁻¹
B9,Kd,[1],0.435 nM
same,koff,[1],0.000397 s⁻¹
same,kon,[1],913000 M⁻¹ s⁻¹
B10,Kd,[1],1 nM
same,koff,[1],0.000351 s⁻¹
same,kon,[1],350000 M⁻¹ s⁻¹
B11,Kd,[1],0.852 nM
same,koff,[1],0.000288 s⁻¹
same,kon,[1],338000 M⁻¹ s⁻¹
B12,Kd,[1],0.83 nM
same,koff,[1],0.000611 s⁻¹
same,kon,[1],736000 M⁻¹ s⁻¹
B13,Kd,[1],1.17 nM
same,koff,[1],0.000437 s⁻¹
same,kon,[1],375000 M⁻¹ s⁻¹
B14,binding result,[4],no binding
same,"IC50 (nM), IL-2 secreted by Jurkat cells co-cultured with CHO/CD80 cells, Experiment 1",[5],27.3 nM
same,"IC50 (nM), IL-2 secreted by Jurkat cells co-cultured with CHO/CD80 cells, Experiment 2",[5],16.6 nM
same,EC50,[6],0.049 nM
same,IC50,[7],0.641 nM
same,EC50,[8],0.045 nM
same,IC50,[9],0.271 nM
same,CD80/CD86 Blocking Ratio,[10],2.37
B15,binding result,[4],no binding
same,"IC50 (nM), IL-2 secreted by Jurkat cells co-cultured with CHO/CD80 cells, Experiment 1",[5],26.4 nM
same,"IC50 (nM), IL-2 secreted by Jurkat cells co-cultured with CHO/CD80 cells, Experiment 2",[5],22.3 nM
same,EC50,[6],0.077 nM
same,IC50,[7],12.8 nM
same,EC50,[8],0.01 nM
same,IC50,[9],1.61 nM
same,CD80/CD86 Blocking Ratio,[10],7.91
B16,binding result,[4],no binding
same,"IC50 (nM), IL-2 secreted by Jurkat cells co-cultured with CHO/CD80 cells, Experiment 1",[5],22.7 nM
same,"IC50 (nM), IL-2 secreted by Jurkat cells co-cultured with CHO/CD80 cells, Experiment 2",[5],14.9 nM
same,EC50,[6],0.026 nM
same,IC50,[7],0.822 nM
same,EC50,[8],0.054 nM
same,IC50,[9],0.369 nM
same,CD80/CD86 Blocking Ratio,[10],2.23
